Assays:
[1] = test system: patients with symptomatic gout; assay: Single-dose, dose-ranging trial: plasma uric acid and plasma uricase activity; format: in vivo, human
From the text: In some embodiments, patients or subjects of the present disclosure may have blood samples taken for PK analysis during treatment with KXX, either alone, or co-administered with an immunosuppressive agent, such as AZA. Although limited PK results have been reported in subjects receiving pegloticase, and no PK studies have been performed in subjects weighing ≥120 kg, the present disclosure provides PK analysis in patients receiving KXX treatment, either alone or co-administered with an immunosuppressive agent or therapy. Sundy et al. (JAMA 306(7):711-20, 2011) reported results from 24 subjects with refractory gout who received single doses from 0.5 to 12 mg of pegloticase. PK parameters included plasma uricase activity (pUox) and the plasma urate concentration (pUAc). […] It remains uncertain whether body mass affects drug distribution. Since pegloticase is administered as a single dose regardless of body mass, this is important to assess.
The duration of suppression of plasma uric acid appeared to be positively associated with pegloticase dose.

rats = assay: Reproductive toxicity and fertility in rats; format: in vivo, rat
From the text: The genotoxic potential of pegloticase has not been evaluated.

rabbits = assay: Reproductive toxicity in rabbits; format: in vivo, rabbit
dogs = assay: Animal toxicology in dogs (IV); format: in vivo, dog; conditions: for vacuoles in the spleen, adrenal glands, and heart after recovery: 1-year recovery period; for vacuoles in the liver, duodenum, and jejunum after recovery: 3-month recovery period
Experimental: Organs with cytoplasmic vacuoles included the spleen, adrenal gland, liver, heart, duodenum, and jejunum. Vacuoles in the spleen, adrenal glands, and heart persisted after a 1-year recovery period at pegloticase dose (≥1.5 mg/kg in dogs) approximately 5 times the MRHD, but were absent at a dose similar to the MRHD. Vacuoles in the liver, duodenum, and jejunum persisted after a 3-month recovery period at a pegloticase dose (10 mg/kg in dogs) approximately 30 times the MRHD, but were absent at doses less than or equal to 1.5 mg/kg approximately 5 times and similar to the MRHD. The edema and histiocyte infiltration in the aortic outflow tract was absent after recovery periods of 6 and 12 months, respectively.
Vacuoles in the spleen, liver, duodenum, and jejunum were within macrophages and most likely represented phagocytic removal of pegloticase from the circulation. […] In the aortic outflow tract of the heart, vacuoles were in the cytoplasm of endothelial cells in the intimal lining of the aorta. In the adrenal gland, vacuoles were located within cortical cells in the Zona reticularis and Zona fasciculata. The clinical significance of these findings and the functional consequences are unknown.

[2] = KXX exposure (AUC) by patient weight and age; format: in vivo, human
From the text: In some embodiments, heavier and/or younger patients may have a higher incidence of anti-KXX antibodies, or may have higher anti-KXX drug titers, than lighter and/or older patients. In other embodiments, lighter and/or older patients may have higher drug loading of KXX than heavier and/or younger patients. In some embodiments, lighter patients may have higher exposures of KXX than heavier patients. For example, in some embodiments, lighter patients may have greater than 2-fold exposure to KXX than heavier patients. In some embodiments, lower drug levels in a patient may result in anti-KXX antibodies. […] In other embodiments, older patients may have higher exposures of KXX than younger patients. For example, in some embodiments, older patients may have greater than 2-fold exposure to KXX than younger patients. […] Thus, in some embodiments, additional 8-mg doses of KXX may be beneficial for younger and/or heavier patients. In other embodiments, younger and/or heavier patients may benefit from one or more loading doses of 16 mg of KXX.

[3] = test system: subjects weighing ≥120 kg; assay: Analysis of prior pegloticase randomized clinical trials by body weight (>=120 kg); format: in vivo, human; conditions: ≥120 kg group
[4] = test system: patients with chronic gout refractory to conventional therapy; assay: Open-label extension study; format: in vivo, human; conditions: KXX 8 mg every 2 weeks
Experimental: Two cases of congestive heart failure exacerbation occurred during the trials in patients receiving treatment with KXX 8 mg every 2 weeks. No cases were reported in placebo-treated patients. Four subjects had exacerbations of pre-existing congestive heart failure while receiving KXX 8 mg every 2 weeks during the open-label extension study.
Studies were stratified for the presence of tophi. Seventy-one percent (71%) of patients had baseline tophi. All patients were prophylaxed with an oral antihistamine, intravenous corticosteroid and acetaminophen. Patients also received prophylaxis for gout flares with non-steroidal anti-inflammatory drugs (NSAIDs) or colchicine, or both, beginning at least one week before KXX treatment unless medically contraindicated or not tolerated. Patients who completed the randomized clinical trials were eligible to enroll in a 2-year open label extension study.

[5] = test system: anti-pegloticase antibodies, anti-PEG antibodies; conditions: cited from earlier work
[6] = test system: patients with chronic gout refractory to conventional therapy; conditions: bi-weekly or every 4 weeks for up to 30 months, 149 patients; cited from earlier work

Substance: pegloticase
- plasma uric acid versus dose ([1]; 0.5, 1, 2, 4, 8 or 12 mg, 24 patients): decreased with increasing pegloticase dose or concentrations
- duration of sustained decrease in plasma uric acid below 6 mg/dL ([1]; single doses of 8 mg and 12 mg, 1-hour intravenous infusion): more than 300 hours
- mean fetal body weights (rats; approximately 10 times the MRHD, maternal doses up to 10 mg/kg twice weekly): No effects
- mean fetal and pup body weights (rats; approximately 50 times the MRHD, maternal doses up to 40 mg/kg every other day): Statistically significant decreases
- teratogenicity (rats; approximately 50 times the MRHD, maternal doses up to 40 mg/kg twice weekly): not teratogenic
- impairment on fertility (rats; doses up to 40 mg/kg every other day (approximately 50 times the MRHD)): no evidence of impairment
- mean fetal body weights (rabbits; approximately 25 times the MRHD, maternal doses up to 10 mg/kg twice weekly): No effects
- mean fetal and pup body weights (rabbits; approximately 75 times the MRHD, maternal doses up to 30 mg/kg every other day): Statistically significant decreases
- teratogenicity (rabbits; approximately 75 times the MRHD, maternal doses up to 30 mg/kg twice weekly): not teratogenic
- vacuoles in the spleen, adrenal glands, and heart after recovery (dogs; dose similar to the MRHD): absent
- vacuoles in the spleen, adrenal glands, and heart after recovery (dogs; ≥1.5 mg/kg, approximately 5 times the MRHD): persisted
- vacuoles in the liver, duodenum, and jejunum after recovery (dogs; 10 mg/kg, approximately 30 times the MRHD): persisted
- vacuoles in the liver, duodenum, and jejunum after recovery (dogs; doses less than or equal to 1.5 mg/kg): absent
- organ findings (dogs; IV doses of ≥0.4 mg/kg, similar to and higher than the MRHD): caused cytoplasmic vacuoles in multiple organs, and edema and histiocyte infiltration in the aortic outflow tract
- edema and histiocyte infiltration in the aortic outflow tract after recovery (dogs; recovery periods of 6 and 12 months, respectively): absent
- mean area under the curve (AUC) ([2]; heavier patients): about 4.04 mg/L
- exposure to KXX, lighter versus heavier patients ([2]; human, in vivo): greater than 2 fold
- exposure to KXX, older versus younger patients ([2]; human, in vivo): greater than 2 fold
- mean area under the curve (AUC) ([2]; lighter patients): about 8.92 mg/L
- mean area AUC ([2]; older patients): about 8.86 mg/L
- mean area AUC ([2]; younger patients): about 3.93 mg/L
- impact on serum urate [3]: less
- initial serum peak of pegloticase (Cmax) [3]: lower
- tendency to become non-responders [3]: greater tendency to become non-responders
- subjects with exacerbations of pre-existing congestive heart failure [4]: Four
- patients with antibody titer exceeding 1:2430 at any time who maintained a response ([5]; another study, 7 of 65): 10.8%
- patients with titers exceeding 1:2430 who developed IRs ([5]; another study, 31 of 52): 60%
- patients who never had an antibody titer above 1:2430 who maintained a response ([5]; another study, 58/65): 89.2%
- patients who developed high titer anti-pegloticase antibodies and subsequently lost response ([5]; one study, 69 of 169 patients): 41%
- participants with high antibody titers who maintained a response (serum urate <6 mg/dL) ([5]; second study): 1 of 52
- participants with high titers who developed IR ([5]; second study): 60%
- long-term safety [6]: No new safety signals were observed

— patent publication US12121566B2, “Methods for treating gout” (Horizon Therapeutics USA, Inc., priority 2019, dated 2024)
